In the supplement of paper PMC5998384:

Tests used:
HeLa Kyoto [1] = assay: melting temperature (median over replicates), in situ; higher = more thermally stable
HeLa Kyoto [2] = assay: solubility change mitosis vs G1/S (difference of NP-40 vs SDS log2 ratios) (log2 ratio difference); higher = more soluble in mitosis
HeLa Kyoto [3] = assay: thermal stability score vs G1/S (z-score of summed log2 fold changes over temperatures); higher = more thermally stable than in G1/S
HeLa Kyoto [4] = assay: solubility in G1/S (NP-40 vs SDS abundance) (log2 ratio); higher = more soluble; conditions: cell cycle stage: G1/S
[5] = cell cycle stage: early G1 (4.5 h after nocodazole release)
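Throughout, for melting temperature (median over replicates), in situ: HeLa Kyoto cells synchronized by double thymidine or nocodazole block, proteins quantified by TMT10plex mass spectrometry, three independent biological replicates.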
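Throughout, for solubility change mitosis vs G1/S (difference of NP-40 vs SDS log2 ratios): synchronized HeLa Kyoto cells (double thymidine block for G1/S, nocodazole release for mitosis), protein amounts in NP-40 versus SDS lysates quantified by mass spectrometry, three biological replicates.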
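Throughout, for solubility in G1/S (NP-40 vs SDS abundance): HeLa Kyoto cells arrested at G1/S by double thymidine block, proteins quantified by TMT10plex mass spectrometry in mild NP-40 versus SDS extracts, three biological replicates.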
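Throughout, for thermal stability score vs G1/S (z-score of summed log2 fold changes over temperatures): synchronized HeLa Kyoto cells, proteins quantified by TMT10plex mass spectrometry, three biological replicates, mitosis taken 0.5 h after nocodazole release, G1/S directly after double thymidine block.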

Substance	melting temperature (HeLa Kyoto [1]; cell cycle stage: G1/S) [°C]	melting temperature (HeLa Kyoto [1]; cell cycle stage: mitosis) [°C]	solubility change mitosis (log2) (HeLa Kyoto [2])	thermal stability score (HeLa Kyoto [3]; [5])	thermal stability score (HeLa Kyoto [3]; cell cycle stage: mitosis)	solubility in G1/S (log2) (HeLa Kyoto [4])
MDCSLVRTLVHRYCAGEENWVDSRTIYVGHREPPPGAEAYIPQRYPDNRIVSSKYTFWNFIPKNLFEQFRRVANFYFLIIFLVQLIIDTPTSPVTSGLPLFFVITVTAIKQGYEDWLRHKADNAMNQCPVHFIQHGKLVRKQSRKLRVGDIVMVKEDETFPCDLIFLSSNRGDGTCHVTTASLDGESSHKTHYAVQDTKGFHTEEDIGGLHATIECEQPQPDLYKFVGRINVYSDLNDPVVRPLGSENLLLRGATLKNTEKIFGVAIYTGMETKMALNYQSKSQKRSAVEKSMNAFLIVYLCILISKALINTVLKYMWQSEPFRDEPWYNQKTESERQRNLFLKAFTDFLAFMVLFNYIIPVSMYVTVEMQKFLGSYFITWDEDMFDEETGEGPLVNTSDLNEELGQVEYIFTDKTGTLTENNMEFKECCIEGHVYVPHVICNGQVLPESSGIDMIDSSPSVNGREREELFFRALCLCHTVQVKDDDSVDGPRKSPDGGKSCVYISSSPDEVALVEGVQRLGFTYLRLKDNYMEILNRENHIERFELLEILSFDSVRRRMSVIVKSATGEIYLFCKGADSSIFPRVIEGKVDQIRARVERNAVEGLRTLCVAYKRLIQEEYEGICKLLQAAKVALQDREKKLAEAYEQIEKDLTLLGATAVEDRLQEKAADTIEALQKAGIKVWVLTGDKMETAAATCYACKLFRRNTQLLELTTKRIEEQSLHDVLFELSKTVLRHSGSLTRDNLSGLSADMQDYGLIIDGAALSLIMKPREDGSSGNYRELFLEICRSCSAVLCCRMAPLQKAQIVKLIKFSKEHPITLAIGDGANDVSMILEAHVGIGVIGKEGRQAARNSDYAIPKFKHLKKMLLVHGHFYYIRISELVQYFFYKNVCFIFPQFLYQFFCGFSQQTLYDTAYLTLYNISFTSLPILLYSLMEQHVGIDVLKRDPTLYRDVAKNALLRWRVFIYWTLLGLFDALVFFFGAYFVFENTTVTSNGQIFGNWTFGTLVFTVMVFTVTLKLALDTHYWTWINHFVIWGSLLFYVVFSLLWGGVIWPFLNYQRMYYVFIQMLSSGPAWLAIVLLVTISLLPDVLKKVLCRQLWPTATERVQTKSQCLSVEQSTIFMLSQTSSSLSF [ATP11A]	53.8	53.8	0.163	-1.06	-0.922	-0.526
MASSAEGDEGTVVALAGVLQSGFQELSLNKLATSLGASEQALRLIISIFLGYPFALFYRHYLFYKETYLIHLFHTFTGLSIAYFNFGNQLYHSLLCIVLQFLILRLMGRTITAVLTTFCFQMAYLLAGYYYTATGNYDIKWTMPHCVLTLKLIGLAVDYFDGGKDQNSLSSEQQKYAIRGVPSLLEVAGFSYFYGAFLVGPQFSMNHYMKLVQGELIDIPGKIPNSIIPALKRLSLGLFYLVGYTLLSPHITEDYLLTEDYDNHPFWFRCMYMLIWGKFVLYKYVTCWLVTEGVCILTGLGFNGFEEKGKAKWDACANMKVWLFETNPRFTGTIASFNINTNAWVARYIFKRLKFLGNKELSQGLSLLFLALWHGLHSGYLVCFQMEFLIVIVERQAARLIQESPTLSKLAAITVLQPFYYLVQQTIHWLFMGYSMTAFCLFTWDKWLKVYKSIYFLGHIFFLSLLFILPYIHKAMVPRKEKLKKME [LPCAT3]	–	55.7	-0.275	0.0481	-0.776	-0.0534
SRRM2	48.3	50.2	0.682	-1.58	5.67	-0.81
MILIPRMLLVLFLLLPILSSAKAQVNPAICRYPLGMSGGQIPDEDITASSQWSESTAAKYGRLDSEEGDGAWCPEIPVEPDDLKEFLQIDLHTLHFITLVGTQGRHAGGHGIEFAPMYKINYSRDGTRWISWRNRHGKQVLDGNSNPYDIFLKDLEPPIVARFVRFIPVTDHSMNVCMRVELYGCVWLDGLVSYNAPAGQQFVLPGGSIIYLNDSVYDGAVGYSMTEGLGQLTDGVSGLDDFTQTHEYHVWPGYDYVGWRNESATNGYIEIMFEFDRIRNFTTMKVHCNNMFAKGVKIFKEVQCYFRSEASEWEPNAISFPLVLDDVNPSARFVTVPLHHRMASAIKCQYHFADTWMMFSEITFQSDAAMYNNSEALPTSPMAPTTYDPMLKVDDSNTRILIGCLVAIIFILLAIIVIILWRQFWQKMLEKASRRMLDDEMTVSLSLPSDSSMFNNNRSSSPSEQGSNSTYDRIFPLRPDYQEPSRLIRKLPEFAPGEEESGCSGVVKPVQPSGPEGVPHYAEADIVNLQGVTGGNTYSVPAVTMDLLSGKDVAVEEFPRKLLTFKEKLGEGQFGEVHLCEVEGMEKFKDKDFALDVSANQPVLVAVKMLRADANKNARNDFLKEIKIMSRLKDPNIIHLLAVCITDDPLCMITEYMENGDLNQFLSRHEPPNSSSSDVRTVSYTNLKFMATQIASGMKYLSSLNFVHRDLATRNCLVGKNYTIKIADFGMSRNLYSGDYYRIQGRAVLPIRWMSWESILLGKFTTASDVWAFGVTLWETFTFCQEQPYSQLSDEQVIENTGEFFRDQGRQTYLPQPAICPDSVYKLMLSCWRRDTKNRPSFQEIHLLLLQQGDE [DDR2]	50.8	51	0.0106	0.527	-1.72	-0.114
MICLVLTIFANLFPAACTGAHERTFLAVKPDGVQRRLVGEIVRRFERKGFKLVALKLVQASEELLREHYAELRERPFYGRLVKYMASGPVVAMVWQGLDVVRTSRALIGATNPADAPPGTIRGDFCIEVGKNLIHGSDSVESARREIALWFRADELLCWEDSAGHWLYE [NME3]	55.7	56.8	-0.0854	-1.81	-2.22	-0.213
MAASRPLSRFWEWGKNIVCVGRNYADHVREMRSAVLSEPVLFLKPSTAYAPEGSPILMPAYTRNLHHELELGVVMGKRCRAVPEAAAMDYVGGYALCLDMTARDVQDECKKKGLPWTLAKSFTASCPVSAFVPKEKIPDPHKLKLWLKVNGELRQEGETSSMIFSIPYIISYVSKIITLEEGDIILTGTPKGVGPVKENDEIEAGIHGLVSMTFKVEKPEY [FAHD1]	53.5	60	-0.257	-1.32	-1.65	0.144
MAAMRKALPRRLVGLASLRAVSTSSMGTLPKRVKIVEVGPRDGLQNEKNIVSTPVKIKLIDMLSEAGLSVIETTSFVSPKWVPQMGDHTEVLKGIQKFPGINYPVLTPNLKGFEAAVAAGAKEVVIFGAASELFTKKNINCSIEESFQRFDAILKAAQSANISVRGYVSCALGCPYEGKISPAKVAEVTKKFYSMGCYEISLGDTIGVGTPGIMKDMLSAVMQEVPLAALAVHCHDTYGQALANTLMALQMGVSVVDSSVAGLGGCPYAQGASGNLATEDLVYMLEGLGIHTGVNLQKLLEAGNFICQALNRKTSSKVAQATCKL [HMGCL]	54.1	53.9	-0.047	0.275	0.372	0.536
MAPQVWRRRTLERCLTEVGKATGRPECFLTIQEGLASKFTSLTKVLYDFNKILENGRIHGSPLQKLVIENFDDEQIWQQLELQNEPILQYFQNAVSETINDEDISLLPESEEQEREEDGSEIEADDKEDLEDLEEEEVSDMGNDDPEMGERAENSSKSDLRKSPVFSDEDSDLDFDISKLEQQSKVQNKGQGKPREKSIVDDKFFKLSEMEAYLENIEKEEERKDDNDEEEEDIDFFEDIDSDEDEGGLFGSKKLKSGKSSRNLKYKDFFDPVESDEDITNVHDDELDSNKEDDEIAEEEAEELSISETDEDDDLQENEDNKQHKESLKRVTFALPDDAETEDTGVLNVKKNSDEVKSSFEKRQEKMNEKIASLEKELLEKKPWQLQGEVTAQKRPENSLLEETLHFDHAVRMAPVITEETTLQLEDIIKQRIRDQAWDDVVRKEKPKEDAYEYKKRLTLDHEKSKLSLAEIYEQEYIKLNQQKTAEEENPEHVEIQKMMDSLFLKLDALSNFHFIPKPPVPEIKVVSNLPAITMEEVAPVSVSDAALLAPEEIKEKNKAGDIKTAAEKTATDKKRERRKKKYQKRMKIKEKEKRRKLLEKSSVDQAGKYSKTVASEKLKQLTKTGKASFIKDEGKDKALKSSQAFFSKLQDQVKMQINDAKKTEKKKKKRQDISVHKLKL [MPHOSPH10]	52.4	52.4	1.06	3.5	1.06	-2.07
